Biological target: T1, CCR6 receptor on human cancer cell lines (PC3, HL60, HT-29, NB4) (human) (UniProt P51684)
T1 sequence (looked up): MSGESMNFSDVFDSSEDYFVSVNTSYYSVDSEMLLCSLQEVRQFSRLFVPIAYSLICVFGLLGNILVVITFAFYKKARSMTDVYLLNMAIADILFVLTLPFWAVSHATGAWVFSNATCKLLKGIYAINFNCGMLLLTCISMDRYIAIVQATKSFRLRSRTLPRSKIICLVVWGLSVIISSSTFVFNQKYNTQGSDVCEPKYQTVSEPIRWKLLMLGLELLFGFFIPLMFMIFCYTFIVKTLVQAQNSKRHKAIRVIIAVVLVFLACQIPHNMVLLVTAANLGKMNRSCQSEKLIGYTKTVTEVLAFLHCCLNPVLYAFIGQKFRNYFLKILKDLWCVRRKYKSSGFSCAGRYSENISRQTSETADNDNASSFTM
Assay: cell-based or functional assay

CCL20 (PeproTech EC, London, UK) (from UniProt P78556 27-96) (ligand)
BrdU incorporation of PC3 cells, CCL20 5 and 50 ng/ml: 1.76 fold | adhesion of HL60 cells to collagen I, CCL20 250 ng/ml: 1.6 fold | adhesion of HL60 cells to fibronectin, CCL20 500 ng/ml: 2 fold | adhesion of PC3 cells to collagen I, CCL20 50 ng/ml: 2.2 fold | adhesion of PC3 cells to collagen I, CCL20 500 ng/ml: 2.09 fold | adhesion of PC3 cells to fibronectin, CCL20 500 ng/ml: 1.45 fold

From patent publication US20110123542A1
